# Measurements: article PMC3351183 (Nucleic Acids Research, 2012)
# How the values were obtained:
# SEC = molecular target: the molecule itself; assay: SEC
# crystal structure = molecular target: the molecule itself; assay: crystal structure
Protein,stoichiometry N (SEC),binding result (crystal structure)
"GB1_HP0315 (HP0315, a VapD protein from Helicobacter pylori, fused with the immunoglobulin-binding domain of streptococcal protein G) (natural protein, Helicobacter pylori 26695) MYALAFDLKIEILKKEYGEPYNKAYDDLRQELELLGFEWTQGSVYVNYSKENTLAQVYKAINKLSQIEWFKKSVRDIRAFKVEDFSDFTEIVKS",2,
"SeMet-substituted GB1_HP0315 (natural protein, Helicobacter pylori 26695, selenomethionine in place of methionine (first methionine residue of GB1 and the methionine residue of HP0315)) MYALAFDLKIEILKKEYGEPYNKAYDDLRQELELLGFEWTQGSVYVNYSKENTLAQVYKAINKLSQIEWFKKSVRDIRAFKVEDFSDFTEIVKS",,binds
